Source: publication PMC9482650, “Quantitative fragmentomics allow affinity mapping of interactomes” (Nature Communications, 2022)

T1: MPDZ_12, O75970
T1 sequence (O75970 1857-1958, limits assumed, looked up): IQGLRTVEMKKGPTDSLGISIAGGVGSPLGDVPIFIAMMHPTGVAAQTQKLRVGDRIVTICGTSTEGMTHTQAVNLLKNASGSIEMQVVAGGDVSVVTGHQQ

T2: PTPN13_1, Q12923
T2 sequence (Q12923 1088-1188, limits assumed, looked up): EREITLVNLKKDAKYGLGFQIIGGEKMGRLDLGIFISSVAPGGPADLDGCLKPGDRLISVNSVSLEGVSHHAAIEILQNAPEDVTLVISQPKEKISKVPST

T3: PDZRN3_1, Q9UPQ7
T3 sequence (Q9UPQ7 244-349, limits assumed, looked up): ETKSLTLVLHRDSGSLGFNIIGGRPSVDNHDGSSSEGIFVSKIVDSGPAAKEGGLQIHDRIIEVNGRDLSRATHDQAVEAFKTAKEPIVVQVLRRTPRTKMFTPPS

T4: DFNB31_3, Q9P202
T4 sequence (Q9P202 811-907, limits assumed, looked up): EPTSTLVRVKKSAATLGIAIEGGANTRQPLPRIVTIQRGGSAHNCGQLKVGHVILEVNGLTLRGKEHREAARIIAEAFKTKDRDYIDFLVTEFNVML

T5: ARHGEF11, O15085
T5 sequence (O15085 42-136, limits assumed, looked up): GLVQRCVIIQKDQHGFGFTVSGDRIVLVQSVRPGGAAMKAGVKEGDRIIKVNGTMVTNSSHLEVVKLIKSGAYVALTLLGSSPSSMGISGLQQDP

T6: TIAM2, Q8IVF5
T6 sequence (Q8IVF5 885-986, limits assumed, looked up): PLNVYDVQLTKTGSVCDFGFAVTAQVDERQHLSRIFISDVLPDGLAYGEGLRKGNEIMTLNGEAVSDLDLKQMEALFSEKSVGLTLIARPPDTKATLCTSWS

T7: DLG3_1, Q92796
T7 sequence (Q92796 125-227, limits assumed, looked up): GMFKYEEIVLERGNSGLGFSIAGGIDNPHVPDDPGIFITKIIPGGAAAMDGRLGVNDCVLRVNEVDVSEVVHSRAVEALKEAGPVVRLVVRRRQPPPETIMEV

T8: NHERF3_4, Q5T2W1
T8 sequence (Q5T2W1 373-468, limits assumed, looked up): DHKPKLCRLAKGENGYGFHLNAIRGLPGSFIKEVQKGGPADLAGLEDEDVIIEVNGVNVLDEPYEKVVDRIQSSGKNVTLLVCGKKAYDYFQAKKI

T9: DFNB31_1, Q9P202
T9 sequence (Q9P202 135-233, limits assumed, looked up): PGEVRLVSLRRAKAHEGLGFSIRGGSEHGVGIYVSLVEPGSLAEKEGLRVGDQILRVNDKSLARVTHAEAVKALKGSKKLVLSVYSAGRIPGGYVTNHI

T10: LRRC7, Q96NW7
T10 sequence (Q96NW7 1440-1537, limits assumed, looked up): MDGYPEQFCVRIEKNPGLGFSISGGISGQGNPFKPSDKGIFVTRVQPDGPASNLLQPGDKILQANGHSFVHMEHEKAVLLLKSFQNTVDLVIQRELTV

T11: LIN7C, Q9NUP9
T11 sequence (Q9NUP9 88-185, limits assumed, looked up): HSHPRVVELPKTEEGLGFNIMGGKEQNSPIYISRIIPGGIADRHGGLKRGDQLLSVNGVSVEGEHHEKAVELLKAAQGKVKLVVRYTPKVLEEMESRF

T12: APBA2_1, Q99767
T12 sequence (Q99767 563-664, limits assumed, looked up): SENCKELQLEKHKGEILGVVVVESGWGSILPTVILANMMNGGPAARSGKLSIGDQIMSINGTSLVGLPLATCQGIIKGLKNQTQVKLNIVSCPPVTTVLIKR


Key:
Assay in all cases: holdup assay
Design in all cases: key: below the threshold = too weak to quantify, mostly under pKd 3.1 to 4
Settings in all cases: plain residues with an end cap or a label only (N-terminal biotin on a linker: ado-ado)
NHERF2_2, Q15599 = biological target: NHERF2_2, Q15599
Sequence of NHERF2_2, Q15599 (Q15599 142-238): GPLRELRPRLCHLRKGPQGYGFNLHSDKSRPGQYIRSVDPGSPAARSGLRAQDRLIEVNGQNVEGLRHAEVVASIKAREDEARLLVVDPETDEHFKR

MPDZ_12, O75970 = biological target: T1, MPDZ_12, O75970
Inadl_1, Q8NI35 = biological target: Inadl_1, Q8NI35
Sequence of Inadl_1, Q8NI35 (Q8NI35 113-229): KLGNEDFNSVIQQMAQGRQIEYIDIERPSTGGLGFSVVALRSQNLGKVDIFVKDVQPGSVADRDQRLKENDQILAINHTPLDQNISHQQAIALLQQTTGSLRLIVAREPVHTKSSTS

PTPN13_1, Q12923 = biological target: T2, PTPN13_1, Q12923
MAST2, Q6P0Q8 = biological target: MAST2, Q6P0Q8
Sequence of MAST2, Q6P0Q8 (Q6P0Q8 1099-1202): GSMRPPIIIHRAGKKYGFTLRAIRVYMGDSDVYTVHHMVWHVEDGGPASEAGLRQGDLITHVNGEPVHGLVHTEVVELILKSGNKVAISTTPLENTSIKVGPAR

AHNAK1, Q09666 = biological target: AHNAK1, Q09666
Sequence of AHNAK1, Q09666 (Q09666 4-100): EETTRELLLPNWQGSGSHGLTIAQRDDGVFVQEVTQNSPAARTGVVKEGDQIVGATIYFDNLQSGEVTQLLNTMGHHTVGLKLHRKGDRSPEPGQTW

PDZRN3_1, Q9UPQ7 = biological target: T3, PDZRN3_1, Q9UPQ7
DLG1_3, Q12959 = biological target: DLG1_3, Q12959
Sequence of DLG1_3, Q12959 (Q12959 457-571): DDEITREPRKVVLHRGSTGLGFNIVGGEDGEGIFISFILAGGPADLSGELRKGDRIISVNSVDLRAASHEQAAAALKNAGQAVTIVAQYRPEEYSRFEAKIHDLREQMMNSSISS

LNX1_3, Q8TBB1 = biological target: LNX1_3, Q8TBB1
Sequence of LNX1_3, Q8TBB1 (Q8TBB1 500-596): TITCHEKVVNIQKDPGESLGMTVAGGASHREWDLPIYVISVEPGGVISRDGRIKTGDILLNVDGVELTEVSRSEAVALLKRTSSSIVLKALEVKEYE

MAGI1_1, Q96QZ7 = biological target: MAGI1_1, Q96QZ7
Sequence of MAGI1_1, Q96QZ7 (Q96QZ7 1-106): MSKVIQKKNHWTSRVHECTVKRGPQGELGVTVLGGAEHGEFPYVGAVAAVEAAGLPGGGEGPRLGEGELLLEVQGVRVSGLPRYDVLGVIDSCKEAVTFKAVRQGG

HTRA2, O43464 = biological target: HTRA2, O43464
Sequence of HTRA2, O43464 (O43464 355-458): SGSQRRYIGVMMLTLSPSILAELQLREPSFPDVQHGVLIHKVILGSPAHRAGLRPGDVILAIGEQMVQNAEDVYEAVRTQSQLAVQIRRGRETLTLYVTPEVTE

DFNB31_3, Q9P202 = biological target: T4, DFNB31_3, Q9P202
ARHGEF11, O15085 = biological target: T5, ARHGEF11, O15085
TIAM2, Q8IVF5 = biological target: T6, TIAM2, Q8IVF5
DLG1_2, Q12959 = biological target: DLG1_2, Q12959
Sequence of DLG1_2, Q12959 (Q12959 314-412): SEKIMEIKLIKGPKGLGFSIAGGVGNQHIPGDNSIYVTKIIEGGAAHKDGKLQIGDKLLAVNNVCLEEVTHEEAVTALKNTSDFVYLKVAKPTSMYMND

DLG3_1, Q92796 = biological target: T7, DLG3_1, Q92796
NHERF3_4, Q5T2W1 = biological target: T8, NHERF3_4, Q5T2W1
DFNB31_1, Q9P202 = biological target: T9, DFNB31_1, Q9P202
MAGI2_6, Q86UL8 = biological target: MAGI2_6, Q86UL8
Sequence of MAGI2_6, Q86UL8 (Q86UL8 1141-1229): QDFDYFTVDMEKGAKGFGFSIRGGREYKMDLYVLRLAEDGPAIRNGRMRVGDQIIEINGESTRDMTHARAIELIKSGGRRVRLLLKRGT

NHERF4_4, Q86UT5 = biological target: NHERF4_4, Q86UT5
Sequence of NHERF4_4, Q86UT5 (Q86UT5 464-550): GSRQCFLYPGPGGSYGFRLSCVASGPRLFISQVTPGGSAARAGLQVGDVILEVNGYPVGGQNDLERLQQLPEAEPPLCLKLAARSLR

Inadl_9, Q8NI35 = biological target: Inadl_9, Q8NI35
Sequence of Inadl_9, Q8NI35 (Q8NI35 1530-1615): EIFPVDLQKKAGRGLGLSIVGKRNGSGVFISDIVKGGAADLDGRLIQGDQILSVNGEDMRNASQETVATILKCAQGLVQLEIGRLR

LRRC7, Q96NW7 = biological target: T10, LRRC7, Q96NW7
LIN7C, Q9NUP9 = biological target: T11, LIN7C, Q9NUP9
NHERF4_2, Q86UT5 = biological target: NHERF4_2, Q86UT5
Sequence of NHERF4_2, Q86UT5 (Q86UT5 220-308): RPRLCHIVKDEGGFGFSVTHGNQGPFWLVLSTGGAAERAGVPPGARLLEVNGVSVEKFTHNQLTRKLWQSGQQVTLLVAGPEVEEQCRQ

APBA2_1, Q99767 = biological target: T12, APBA2_1, Q99767
TJP1_3, Q07157 = biological target: TJP1_3, Q07157
Sequence of TJP1_3, Q07157 (Q07157 416-512): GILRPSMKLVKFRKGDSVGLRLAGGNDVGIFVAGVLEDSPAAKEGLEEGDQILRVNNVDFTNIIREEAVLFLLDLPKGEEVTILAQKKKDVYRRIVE

pKd (NHERF2_2, Q15599)	pKd (MPDZ_12, O75970)	pKd (Inadl_1, Q8NI35)	pKd (PTPN13_1, Q12923)	pKd (MAST2, Q6P0Q8)	pKd (AHNAK1, Q09666)	pKd (PDZRN3_1, Q9UPQ7)	pKd (DLG1_3, Q12959)	pKd (LNX1_3, Q8TBB1)	pKd (MAGI1_1, Q96QZ7)	pKd (HTRA2, O43464)	pKd (DFNB31_3, Q9P202)	pKd (ARHGEF11, O15085)	pKd (TIAM2, Q8IVF5)	pKd (DLG1_2, Q12959)	pKd (DLG3_1, Q92796)	pKd (NHERF3_4, Q5T2W1)	pKd (DFNB31_1, Q9P202)	pKd (MAGI2_6, Q86UL8)	pKd (NHERF4_4, Q86UT5)	Binder	also measured
below the threshold	below the threshold	below the threshold	below the threshold	3.82	below the threshold	below the threshold	below the threshold	below the threshold	below the threshold	below the threshold	3.72	below the threshold	below the threshold	below the threshold	below the threshold	below the threshold	3.65	below the threshold	below the threshold	RALRASESGI [ADGRE5, P48960]	pKd (Inadl_9, Q8NI35): below the threshold; pKd (LRRC7, Q96NW7): below the threshold; pKd (LIN7C, Q9NUP9): 4.07; pKd (NHERF4_2, Q86UT5): below the threshold; pKd (APBA2_1, Q99767): below the threshold; pKd (TJP1_3, Q07157): below the threshold
3.47	below the threshold	below the threshold	below the threshold	3.81	below the threshold	below the threshold	below the threshold	below the threshold	below the threshold	below the threshold	below the threshold	below the threshold	below the threshold	below the threshold	below the threshold	below the threshold	below the threshold	below the threshold	3.95	NVYGTESVKI [GRIA3, P42263]	pKd (Inadl_9, Q8NI35): below the threshold; pKd (LRRC7, Q96NW7): below the threshold; pKd (LIN7C, Q9NUP9): below the threshold; pKd (NHERF4_2, Q86UT5): below the threshold; pKd (APBA2_1, Q99767): below the threshold; pKd (TJP1_3, Q07157): below the threshold
below the threshold	below the threshold	below the threshold	below the threshold	3.75	below the threshold	below the threshold	below the threshold	below the threshold	below the threshold	below the threshold	below the threshold	below the threshold	below the threshold	below the threshold	below the threshold	below the threshold	below the threshold	below the threshold	below the threshold	SRPRPDDLEI [GJA1, P17302]	pKd (Inadl_9, Q8NI35): below the threshold; pKd (LRRC7, Q96NW7): below the threshold; pKd (LIN7C, Q9NUP9): below the threshold; pKd (NHERF4_2, Q86UT5): below the threshold; pKd (APBA2_1, Q99767): below the threshold; pKd (TJP1_3, Q07157): below the threshold
4.03	below the threshold	below the threshold	below the threshold	4.46	below the threshold	below the threshold	below the threshold	below the threshold	below the threshold	below the threshold	below the threshold	below the threshold	below the threshold	below the threshold	below the threshold	below the threshold	below the threshold	below the threshold	below the threshold	GCQGETEDVL [PTH2R, P49190]	pKd (Inadl_9, Q8NI35): below the threshold; pKd (LRRC7, Q96NW7): below the threshold; pKd (LIN7C, Q9NUP9): below the threshold; pKd (NHERF4_2, Q86UT5): below the threshold; pKd (APBA2_1, Q99767): below the threshold; pKd (TJP1_3, Q07157): below the threshold
3.83	below the threshold	below the threshold	below the threshold	5.23	below the threshold	3.48	3.53	3.53	below the threshold	4.18	3.89	4.85	below the threshold	5.2	4.18	below the threshold	3.65	3.86	below the threshold	PMESGICTIV [TTC24, A2A3L6]	pKd (Inadl_9, Q8NI35): 4.06; pKd (LRRC7, Q96NW7): below the threshold; pKd (LIN7C, Q9NUP9): below the threshold; pKd (NHERF4_2, Q86UT5): below the threshold; pKd (APBA2_1, Q99767): below the threshold; pKd (TJP1_3, Q07157): below the threshold
